# Reference: publication PMC9884297, “Iron-sulfur clusters are involved in post-translational arginylation” (Nature Communications, 2023)
# Biological target: the molecule itself
# Assay: SEC; 120 mL gel filtration column, 25 mmol/L Tris pH 7.5, 100 mmol/L NaCl, 1 mmol/L TCEP, 0.35 mol/L glycerol; apparent oligomeric state
protein,measurement,value
"Arg tRNA synthetase from E. coli (strain K12) (enzyme, UniProt P11875 1-577, looked up, Arg tRNA synthetase, E. coli strain K12, UniProt P11875; A TEV-protease cleavage site (ENLYFQS) lies between the protein and the C-terminal (His)6 tag (pET-21a(+), NdeI/XhoI); also called EcArgRS; ArgRS) MNIQALLSEKVRQAMIAAGAPADCEPQVRQSAKVQFGDYQANGMMAVAKKLGMAPRQLAEQVLTHLDLNGIASKVEIAGPGFINIFLDPAFLAEHVQQALASDRLGVATPEKQTIVVDYSAPNVAKEMHVGHLRSTIIGDAAVRTLEFLGHKVIRANHVGDWGTQFGMLIAWLEKQQQENAGEMELADLEGFYRDAKKHYDEDEEFAERARNYVVKLQSGDEYFREMWRKLVDITMTQNQITYDRLNVTLTRDDVMGESLYNPMLPGIVADLKAKGLAVESEGATVVFLDEFKNKEGEPMGVIIQKKDGGYLYTTTDIACAKYRYETLHADRVLYYIDSRQHQHLMQAWAIVRKAGYVPESVPLEHHMFGMMLGKDGKPFKTRAGGTVKLADLLDEALERARRLVAEKNPDMPADELEKLANAVGIGAVKYADLSKNRTTDYIFDWDNMLAFEGNTAPYMQYAYTRVLSVFRKAEIDEEQLAAAPVIIREDREAQLAARLLQFEETLTVVAREGTPHVMCAYLYDLAGLFSGFYEHCPILSAENEEVRNSRLKLAQLTAKTLKLGLDTLGIETVERM",stoichiometry N,6
